Test results published in US8778303B2, “99mTc-labeled 19 amino acid containing peptide for use as phosphatidylethanolamine binding molecular probe and radiopharmaceutical” (The Medical College of Wisconsin, Inc., priority 2008, dated 2014).
Entries after “also recorded” stand apart in the source; their conditions may differ.

Assays:
[1] = Stability of purified radiotracer in aqueous solution; format: physicochemical; details: once purified
Experimental: HPLC method 2. Jupiter C18 column (90 Å pore size, 250×4.6 mm) was used with a buffered mobile phase system consisting of phosphate buffer (10 mM sodium phosphate, pH 6.7) and acetonitrile at a flow rate of 1.0 ml/min at room temperature. A baseline of 5 min at 90% buffer A (phosphate buffer, pH6.7) and 10% buffer B (acetonitrile) was followed by a linear gradient to 10% buffer A and 90% buffer B in 30 min. The level of radioactivity in the HPLC elute was monitored by gamma counting at an energy window of 140±15 keV.
HYNIC-Duramycin was labeled with ^99mTc using the tricine-phosphine co-ligand system. Specifically, 15 μg of HYNIC-Duramycin was mixed with 40 mg of tricine, 1 mg of TPPTS and 20 μg SnCl2 in 0.8 ml at pH 5.3. The labeling was initiated with the addition of about 1 mCi of ^99mTc. The incubation was allowed to proceed for 40 min at room temperature. The final radiopharmaceutical, ^99mTc-HYNIC-Duramycin, was analyzed and purified using HPLC method 2. After purification, acetonitrile was removed by evaporation under nitrogen, and ^99mTc-HYNIC-Duramycin was reconstituted in saline for usage. ^99mTc-HYNIC-Duramycin^1 was synthesized in the same fashion. For stability tests, cysteine challenge was carried out at a cysteine-to-^99mTc-Duramycin ratio of 100 to 1, in 0.01 mM phosphate buffer (pH 6.8) for 2 hr at room temperature. The sample was analyzed with radioHPLC (method 2).

[2] = tested on: apoptotic Jurkat lymphocytes; test: In vitro binding tests, apoptotic vs viable cells; details: for binding to apoptotic cells: apoptotic Jurkat lymphocytes
Experimental: In vitro binding tests. The PtdE-binding activity of ^99mTc-HYNIC-Duramycin was examined using binding assays in vitro. A good source of exposed PtdE was apoptotic Jurkat lymphocytes incubated with 5 μM final concentration of camptothecin at 37° C. in a humidified atmosphere with 5% CO2. Untreated control or treated cells were harvested by centrifugation at 800 g for 5 min and re-suspended at 2×10^6 per ml. Radiolabeled Duramycin or Duramycin^1 (inactivated Duramycin) was added to each ml of cells at a final concentration of 100 nM, and the binding was allowed to proceed for 5 min at room temperature. The mixture was then loaded onto a layer of Histopaque. After centrifugation at 800 g for 5 min, cell pellet was collected at the bottom of the tube below the Histopaque layer, whereas the media that contained the non-bound radioactivity will remain above Histopaque. The aqueous supernatant was removed by gentle aspiration. The tip of the tube that contains the pellet was cut off using a hot scalpel. Bound radioactivity was determined by direct gamma counting at an energy window of 140±15 keV.

[3] = Experimental: Blood half-life and pharmacokinetic studies. The animal protocol used was approved by the Institutional Animal Care and Use Committee under the NIH guideline. Healthy Sprague Dawley rats were injected with radiolabeled Duramycin (2.3 nmole) via the tail vein. At each designated time point, including 0, 1, 5, 15, 30, and 60 min, 50 μl of blood was withdrawn from a pre-installed femoral artery catheter and collected in heparinized tubes. The blood sample was centrifuged at 5000 g, and the radioactivity in the cellular and plasma fractions was measured separately by direct gamma counting using an energy window of 140±15 keV. The data output included total blood activity with time, and the activity associated with blood cells and the plasma, respectively. The blood half-life measurement was conducted in triplets. To analyze the pharmacokinetics of the radiopharmaceutical, 10 μl of the plasma or urine sample was analyzed using HPLC method 2 which involves the physical separation of molecules based upon the matrix-solvent interactions.
[4] = Biodistribution studies in healthy rats; format: in vivo, rat
Experimental: Biodistribution studies. […] Dynamic whole-body biodistribution profile was acquired using an in-house gamma camera (GE XRT). The anesthetized animal was continuously imaged at an energy window of 140±15 keV, field of view 22.5×22.5 cm, matrix 128×128, at 1 min per image for up to 60 min post-injection.
For quantitative biodistribution, at each designated time point after intravenous injection of radiolabeled Duramycin, including 0, 1, 5, 15, 30, and 60 min, a group of 4 rats were sacrificed. Various tissues were dissected, rinsed in saline, weighed, and the level of radioactivity was determined using direct gamma counting (140±15 keV).

[5] = tested on: acute cardiac cell death; test: In vivo imaging of acute cardiac cell death, rat model of ischemia and reperfusion
[6] = tested on: AMI; test: Window of detection for AMI, planar imaging and autoradiography; format: in vivo, rat
[7] = tested on: acute cardiac cell death; test: Imaging of cardiac cell death after coronary ischemia with or without reperfusion (Example 2); format: in vivo, rat
Experimental: Cardiology applications include imaging cardiac cell death in heart diseases, such as acute myocardial infarction, myocarditis, myocardial ischemia, and heart transplant rejection. In an experimental example using a rat model, 99mTc-Duramycin was injected into a control rat (FIG. 10A) and a rat in which coronary ischemia was induced, followed by reperfusion (FIG. 10B). Both rats were subsequently imaged. […] A similar experiment was performed using a rat model where induced coronary ischemia was not followed by reperfusion.

[8] = tested on: stroke; details: in vivo
[9] = tested on: radiation-induced cell death; test: Imaging of radiation-induced cell death after whole-body irradiation; format: in vivo, rat; details: rats, 15 Gy whole-body ionizing irradiation
Text: In an experimental example, 99mTc-Duramycin imaging was used to detect the distribution of radiation-prone tissues after exposure to high-dose ionizing irradiation. […] Control rats were not exposed to ionizing radiation. […] The most radiation-susceptible tissues include the thymus (arrow) and bone marrows (arrow heads and bottom insets).

In the case of `CC(C)=NNc1ccc(C(=O)NCCCC[C@@H]2NC(=O)[C@@H](N)CS[C@@H](C)[C@H]3NC(=O)[C@H](CC(N)=O)NC(=O)CNC(=O)[C@H]([C@@H](O)C(=O)O)NC(=O)[C@@H]4CSC[C@@H](NC(=O)[C@H](CCC(N)=O)NC2=O)C(=O)N[C@H]2CS[C@@H](C)[C@@H](NC(=O)[C@H](Cc5ccccc5)NC(=O)[C@@H]5CCCN5C(=O)CNC(=O)[C@H](Cc5ccccc5)NC(=O)[C@H](CNCCCC[C@@H](C(=O)O)NC3=O)NC2=O)C(=O)N[C@@H](Cc2ccccc2)C(=O)N[C@@H](C(C)C)C(=O)N4)cn1` [^99mTc-HYNIC-Duramycin, metal not drawn], the “time with no significant level of detached 99mTc detected” value [1] is reported as “at least 24 hrs”, the “binding to apoptotic cells” value [2] is reported as “dramatically enhanced” and the “binding to apoptotic cells” value ([2]; listed as 99mTc-HYNIC-Duramycin^1) is reported as “only at background levels”. For the same compound, the “radioactivity uptake in viable cells” value ([2]; viable Jurkat lymphocytes as control) was “remained near background”, the “radio-HPLC analysis of plasma samples” value ([3]; after intravenous injection) was “majority of the injected radioactivity remained as the parent” and the “radioactivity in the blood associated with the plasma fraction” value ([3]; all time points) was “greater than 95%”. It also gave a tissue uptake at 1 h ([4]; Sprague Dawley, rat, 2.3 nmole, total radioactivity, Bone, healthy rats, intravenous, 60 min post-injection (n=4)) of 0.04 ± 0.01 %ID/g, a tissue uptake at 1 h ([4]; Sprague Dawley, rat, 2.3 nmole, total radioactivity, Brain, healthy rats, intravenous, 60 min post-injection (n=4)) of 0.01 ± 0.01 %ID/g and a tissue uptake at 1 h ([4]; Sprague Dawley, rat, 2.3 nmole, total radioactivity, Colon, healthy rats, intravenous, 60 min post-injection (n=4)) of 0.11 ± 0.01 %ID/g. For the same compound, the tissue uptake at 1 h ([4]; Sprague Dawley, rat, 2.3 nmole, total radioactivity, Fat, healthy rats, intravenous, 60 min post-injection (n=4)) was 0.06 ± 0.06 %ID/g, the tissue uptake at 1 h ([4]; Sprague Dawley, rat, 2.3 nmole, total radioactivity, Heart, healthy rats, intravenous, 60 min post-injection (n=4)) was 0.21 ± 0.16 %ID/g and the tissue uptake at 1 h ([4]; Sprague Dawley, rat, 2.3 nmole, total radioactivity, Kidney, healthy rats, intravenous, 60 min post-injection (n=4)) was 2.32 ± 0.48 %ID/g. It also gave a tissue uptake at 1 h ([4]; Sprague Dawley, rat, 2.3 nmole, total radioactivity, Liver, healthy rats, intravenous, 60 min post-injection (n=4)) of 0.28 ± 0.01 %ID/g, a tissue uptake at 1 h ([4]; Sprague Dawley, rat, 2.3 nmole, total radioactivity, Lung, healthy rats, intravenous, 60 min post-injection (n=4)) of 0.12 ± 0.05 %ID/g and a tissue uptake at 1 h ([4]; Sprague Dawley, rat, 2.3 nmole, total radioactivity, Muscle, healthy rats, intravenous, 60 min post-injection (n=4)) of 0.03 ± 0.01 %ID/g. It also gave a tissue uptake at 1 h ([4]; Sprague Dawley, rat, 2.3 nmole, total radioactivity, Pancreas, healthy rats, intravenous, 60 min post-injection (n=4)) of 0.05 ± 0.01 %ID/g, a tissue uptake at 1 h ([4]; Sprague Dawley, rat, 2.3 nmole, total radioactivity, Skin, healthy rats, intravenous, 60 min post-injection (n=4)) of 0.01 ± 0.01 %ID/g and a tissue uptake at 1 h ([4]; Sprague Dawley, rat, 2.3 nmole, total radioactivity, Small intestine, healthy rats, intravenous, 60 min post-injection (n=4)) of 0.37 ± 0.07 %ID/g. For the same compound, the tissue uptake at 1 h ([4]; Sprague Dawley, rat, 2.3 nmole, total radioactivity, Spleen, healthy rats, intravenous, 60 min post-injection (n=4)) was 0.1 ± 0.02 %ID/g, the tissue uptake at 1 h ([4]; Sprague Dawley, rat, 2.3 nmole, total radioactivity, Stomach, healthy rats, intravenous, 60 min post-injection (n=4)) was 0.11 ± 0.01 %ID/g and the tissue uptake at 1 h ([4]; Sprague Dawley, rat, 2.3 nmole, total radioactivity, Thymus, healthy rats, intravenous, 60 min post-injection (n=4)) was 0.06 ± 0.02 %ID/g. The tissue uptake at 1 h ([4]; Sprague Dawley, rat, 2.3 nmole, total radioactivity, Thyroid, healthy rats, intravenous, 60 min post-injection (n=4)) was 0.08 ± 0.03 %ID/g, the excreta dose per gram or mL at 1 h ([4]; Sprague Dawley, rat, 2.3 nmole, total radioactivity, Urine, healthy rats, intravenous, 60 min post-injection (n=4), read-out: Uptake) was 22.1 ± 13.2 %ID/g and the tissue uptake at 1 h ([4]; Sprague Dawley, rat, whole blood, 2.3 nmole, total radioactivity, Blood, healthy rats, intravenous, 60 min post-injection (n=4)) was 0.33 ± 0.11 %ID/g. The “signs of toxicity or other adverse effects” value ([4]; at the current dosage tested, rats) was “no signs of toxicity or other adverse effects were observed”, the brain uptake ([4]; healthy rats) was “low” and the route of clearance ([4]; healthy rats) was “renal excretion is the predominant route of clearance”. For the same compound, the “uptake in the hepatic and gastrointestinal regions” value ([4]; healthy rats) was “low uptake; also recorded: very low”, the “average radioactivity at the infarct site” value ([5]; at 1 hr post-injection) was “above 4.0 % ID/g” and the infarct-to-lung ratio ([5]; at 2 hr after injection (n=3)) was 4.8±0.4. The infarct-to-muscle ratio ([5]; at 2 hr after injection (n=3)) was 12.2±1.3, the “time after injection at which focal uptake was seen at the infarct” value ([5]; dynamic images, as early as) was 10 min and the “average radioactivity at the infarct site” value ([5]; rat, in vivo) was “less than 1.0 % ID/g”. The “retention / washout of radioactivity in the infarct” value ([5]; rat, in vivo) was “accompanied with a washout”, the “decline of signal-to-background ratio in autoradiographs” value ([6]; at 24 hr compared with 2 hr post infarction) was 32% and the “decline of signal-to-background ratio in autoradiographs” value ([6]; at 48 hr compared with 2 hr post infarction) was 43%. The “imaging of acute cardiac cell death after reperfused coronary ischemia” value ([7]; infarct model rat, 120 minutes after injection) was “can be seen”, the “imaging of cardiac cell death following nonreperfused coronary ischemia” value ([7]; rat model) was “successfully imaged” and the “uptake in brain, rat stroke model” value [8] was “Focal uptake of radioactivity is colocalized with regions of stroke”. The “detection of radiation-susceptible tissues” value [9] was “Tissues susceptible to radiation-induced cell death were detected”.
